# Measured values reported in article PMC4405707.
# Molecular target: TARP γ-2 (rat) (UniProt Q71RJ2)
# Test: co-IP; GluA2 variants transfected into HEK293T cells stably expressing TARP γ-2; proteins extracted under mild detergent conditions; IP with an anti-γ-2 antibody, blot probed with polyclonal GluA2 antibody; amounts normalized to the input
# Chain of TARP γ-2 (rat) (Q71RJ2 whole entry): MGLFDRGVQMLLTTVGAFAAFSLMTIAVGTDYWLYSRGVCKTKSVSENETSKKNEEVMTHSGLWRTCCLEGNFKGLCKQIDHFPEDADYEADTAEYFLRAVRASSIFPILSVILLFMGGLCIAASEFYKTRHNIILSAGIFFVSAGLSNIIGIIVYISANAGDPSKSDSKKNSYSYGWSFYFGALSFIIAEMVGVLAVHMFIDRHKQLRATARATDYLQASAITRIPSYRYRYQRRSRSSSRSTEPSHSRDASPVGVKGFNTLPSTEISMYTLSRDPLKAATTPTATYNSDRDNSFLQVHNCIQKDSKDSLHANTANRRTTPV
# Chain of GluA2i-ΔNTD (flip, R607) (P19491 other isoform, or with tags, fused parts or gaps, stated change not applied): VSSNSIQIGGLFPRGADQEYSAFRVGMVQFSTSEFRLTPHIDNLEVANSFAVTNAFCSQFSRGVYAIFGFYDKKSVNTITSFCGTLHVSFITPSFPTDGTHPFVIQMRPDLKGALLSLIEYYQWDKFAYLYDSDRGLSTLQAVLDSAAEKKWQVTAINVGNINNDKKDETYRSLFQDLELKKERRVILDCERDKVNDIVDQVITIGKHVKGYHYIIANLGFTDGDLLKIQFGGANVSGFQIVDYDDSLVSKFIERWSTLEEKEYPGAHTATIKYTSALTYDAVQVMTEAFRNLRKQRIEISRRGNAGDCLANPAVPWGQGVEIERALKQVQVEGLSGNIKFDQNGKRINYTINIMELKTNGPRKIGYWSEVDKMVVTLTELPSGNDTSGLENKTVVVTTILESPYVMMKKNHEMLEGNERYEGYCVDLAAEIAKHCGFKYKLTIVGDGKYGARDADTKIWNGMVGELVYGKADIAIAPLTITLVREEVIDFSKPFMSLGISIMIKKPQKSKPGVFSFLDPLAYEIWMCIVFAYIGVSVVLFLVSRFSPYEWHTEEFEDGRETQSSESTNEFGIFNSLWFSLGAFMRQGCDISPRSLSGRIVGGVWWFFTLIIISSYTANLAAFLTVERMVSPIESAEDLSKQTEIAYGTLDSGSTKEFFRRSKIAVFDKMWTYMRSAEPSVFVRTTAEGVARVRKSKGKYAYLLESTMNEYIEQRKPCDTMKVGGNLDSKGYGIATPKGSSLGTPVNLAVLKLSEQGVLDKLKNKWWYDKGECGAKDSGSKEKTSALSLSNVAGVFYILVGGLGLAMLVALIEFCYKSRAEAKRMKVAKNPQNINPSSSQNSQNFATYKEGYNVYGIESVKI
# Chain of GluA2o-R607 ΔNTD (flop Δ-NTD mutant) (P19491 other isoform, or with tags, fused parts or gaps, stated change not applied): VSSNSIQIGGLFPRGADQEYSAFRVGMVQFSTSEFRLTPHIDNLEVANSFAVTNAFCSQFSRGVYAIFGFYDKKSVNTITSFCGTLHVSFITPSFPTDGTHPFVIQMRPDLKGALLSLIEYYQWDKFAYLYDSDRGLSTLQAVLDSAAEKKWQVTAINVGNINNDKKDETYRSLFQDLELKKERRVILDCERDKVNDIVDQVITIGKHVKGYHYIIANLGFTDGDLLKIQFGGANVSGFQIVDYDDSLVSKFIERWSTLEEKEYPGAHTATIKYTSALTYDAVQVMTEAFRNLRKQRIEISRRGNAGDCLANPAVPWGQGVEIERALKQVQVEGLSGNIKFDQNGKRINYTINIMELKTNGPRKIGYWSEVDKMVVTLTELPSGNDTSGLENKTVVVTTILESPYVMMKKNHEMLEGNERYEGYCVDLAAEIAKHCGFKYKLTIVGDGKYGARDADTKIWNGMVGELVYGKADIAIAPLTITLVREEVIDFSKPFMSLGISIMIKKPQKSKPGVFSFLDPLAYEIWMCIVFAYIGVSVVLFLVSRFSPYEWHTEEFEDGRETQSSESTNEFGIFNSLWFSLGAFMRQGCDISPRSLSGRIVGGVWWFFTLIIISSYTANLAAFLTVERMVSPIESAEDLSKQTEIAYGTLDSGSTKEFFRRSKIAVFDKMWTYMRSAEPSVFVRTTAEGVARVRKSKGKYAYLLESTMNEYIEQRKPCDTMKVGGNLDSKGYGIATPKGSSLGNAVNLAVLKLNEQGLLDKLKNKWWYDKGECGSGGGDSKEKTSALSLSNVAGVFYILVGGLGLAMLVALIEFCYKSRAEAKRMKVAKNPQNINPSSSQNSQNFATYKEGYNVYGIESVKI
Substance,fold less efficiently precipitated than the flip ΔNTD counterpart [fold],fold reduction of coIP by the Q to R switch (ΔNTD R607 against ΔNTD Q607) [fold],"ratio of IPed GluA2i WT to GluA2i-ΔNTD, normalized to the input [fold]"
GluA2o-R607 ΔNTD (flop Δ-NTD mutant) (from UniProt P19491 22-883) (receptor),2.9,–,–
"GluA2i-ΔNTD (flip, R607) (from UniProt P19491-2 22-883) (receptor)",–,2.2,2.9
